Experimental data as given in the DeepSol protein solubility set.

Test: soluble on expression in E. coli; label from the status in PepcDB or PDB records

Sequence	soluble on expression in E. coli
MKMNEIVASTQFPNTIETITKDLKALGVEKGMTIIVHSSLSSIGWISGGAVAVVEALMKVVTEEGTIIMPTQSSDLSDPKHWSRPPVPEDWWQIIRDNVPAFDSRITPTRGMGEIVECFRTYPNVVRSNHPLGSFAAWGKHAVEITMNHSLSMSFGEESPLRKIYDLDGYVLLIGVGYDSNTSVHLSEVRSGACELIQVGAPIIENGERVWKEFVEMDYESEKFVEIGVEFERKGTVKNGKIGNATCRLMKQRDIVDFGTEWFRKKN	not soluble
MSEPADLIGEIDALGIKLQEARASITRRFIGQERVVDLTLTALLCGGHALLIGLPGLGKTRLVETLSTVMGLHGNRIQFTPDLMPADILGSEVLDTAEDGSRRFRFIPGPIFCQLLMADEINRASPRTQSALLQAMQEKTVTVAGENRPLGTPFHVLATQNPIEQEGTYPLPEAQLDRFLVQIDVDYPDRATEREILLATTGVEEAEAHQVMSQADLLGAQVLLRRMPVGESVVEMILDLVRAFRPDEPGVSDRVRDTVAWGPGPRAAQALMLTVRARALLQGRLAPSPEDVLDMARPVLSHRMALNFAARARGDTLAGLIDETAASLTRTEAAALEHHHHHH	not soluble
MHFRMKVLENSSKHNTPKKQKTFQHYLPAGDRCYSCIHCRANLAAHAELISKSFQGSQGKAYLFNAVVNVGCGPAEERVLLTGLHAVADIYCEICKTTLGWKYEHAFESSQKYKEGKFIIELAHMVKDNGWDEQNDS	not soluble
MGSDKIHHHHHHMYDLQELEAFVSVVRTGSLTASTRDLGLPKSTLSRRIRQLEENVGQPLLLRQSRKIVPNDAGRVFYRYCNDILELVVQGREALDELKAEVTGKLELRCHESFVRGWFSGVVESFMADHDDLRVAIHTQRNLPEAVEDGVCIWLGETGETALRQEVLGVLKQGIFGSPAYFRQHGKPAAPGELAHHPWVDLLGMADTGVILHHSRQGNFPLSLPDRRFTVDQFNVQGDAIAAGRGLGLMPVWLVERRLTAHPGSFQSCLPEWYGPDLPVTLLYPHGVLPRRVRAFIAHLRSCIPEEWTGGGGTATQAVPKSGTHHSNT	not soluble
GSGGARGLYLQTVTYNFLKEQGDNRIVRTQALPATRGTVSDRNGAVLALSAPTESLFAVPKDMKEMPSAAQLERLSELVDVPVDVLRNKLEQKGKSFIWIKRQLDPKVAEEVKALGLENFVFEKELKRHYPMGNLFAHVIGFTDIDGKGQEGLELSLEDSLYGEDGAEVVLRDRQGNIVDSLDSPRNKAPQNGKDIILSLDQRIQTLAYEELNKAVEYHQAKAGTVVVLDARTGEILALANTPAYDPNRPGRADSEQRRNRAVTDMIEPGSAIKPFVIAKALDAGKTDLNERLNTQPYKIGPSPVRDTHVYPSLDVRGIMQKSSNVGTSKLSARFGAEEMYDFYHELGIGVRMHSGFPGETAGLLRNWRRWRPIEQATMSFGYGLQLSLLQLARAYTALTHDGVLLPLSFEKQAVAPQGKRIFKESTAREVRNLMVSVTEPGGTGTAGAVDGFDVGAKTGTARKFVNGRYADNKHVATFIGFAPAKNPRVIVAVTIDEPTAHGYYGGVVAGPPFKKIMGGSLNILGISPTKPLTAAAVKTPS	soluble
MGQEYYFCRCGRSKKQPYCDGSHSGTGMKPMSFTAEKDEDAYLCQCKHTANAPFCDGTLEHHHHHH	not soluble
MKEKEYLFSLDMKVRDYECDLQGVVNNSNYQRYMEHTRHEFWESLGDNFGQMHEKGLDAFVYKVTITFKQSLRSGDRFRSCLTCHKKGPKLIFMQDIIREDGVMAARGEVEVVAVQDGVLTRGEYFDVLMKDILSKTTKLEHHHHHH	soluble
MNIRNARPEDLMNMQHCNLLCLPENYQMKYYFYHGLSWPQLSYIAEDENGKIVGYVLAKMEEDPDDVPHGHITSLAVKRSHRRLGLAQKLMDQASRAMIENFNAKYVSLHVRKSNRAALHLYSNTLNFQISEVEPKYYADGEDAYAMKRDLTQMADEPASGPGSSCLLSGDLGPVSFHPLPSGLLAAAEAAPGAEGKGQAHGSGGLGEQSGEQRQRAFELRRGLS	soluble
GSQEEDLPRPSISAEPGTVIPLGSHVTFVCRGPVGVQTFRLERESRSTYNDTEDVSQASPSESEARFRIDSVSEGNAGPYRCIYYKPPKWSEQSDYLELLVKEAAA	soluble
